The values below come from patent US20210270842A1 (DYAX, published 2021).

Where “and” joins values, the source holds several entries; their conditions need not be identical. Equal values may be shown once.

Assay [1] has as its target T1, cleaved high molecular weight kininogen (HMWK) (human, UniProt P01042 19-380; P01042 390-644).
T1 construct: also called cleaved HMWK; 2-chain HMWK
T1 sequence 1: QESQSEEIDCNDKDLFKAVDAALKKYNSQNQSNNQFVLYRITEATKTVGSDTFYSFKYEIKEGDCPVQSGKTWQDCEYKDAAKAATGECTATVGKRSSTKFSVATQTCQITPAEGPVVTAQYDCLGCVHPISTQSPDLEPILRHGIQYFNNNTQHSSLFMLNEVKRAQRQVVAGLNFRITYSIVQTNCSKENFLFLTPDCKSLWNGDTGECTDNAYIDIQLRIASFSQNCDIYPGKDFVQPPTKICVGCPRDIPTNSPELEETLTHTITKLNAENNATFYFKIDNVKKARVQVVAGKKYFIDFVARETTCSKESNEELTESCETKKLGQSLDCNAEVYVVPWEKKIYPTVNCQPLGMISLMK
T1 sequence 2: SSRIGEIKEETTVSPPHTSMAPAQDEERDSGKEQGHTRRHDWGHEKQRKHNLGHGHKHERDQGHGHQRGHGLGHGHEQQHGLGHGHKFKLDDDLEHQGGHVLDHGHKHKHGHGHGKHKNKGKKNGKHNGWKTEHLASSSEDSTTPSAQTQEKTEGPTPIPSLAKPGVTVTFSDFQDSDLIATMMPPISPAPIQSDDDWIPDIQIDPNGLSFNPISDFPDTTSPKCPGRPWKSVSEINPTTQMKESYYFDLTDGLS
The assay can be described thus: sandwich ELISA with coated Fab; value = C, midpoint of the printed 4-P fit; 2-chain HMWK spiked into SBT assay buffer. The text has this:
Purified cleaved HMWK was spiked into SBT assay buffer (open circles), SBT assay buffer and analyzed in the presence of 10% plasma (squares), or HMWK-deficient plasma and analyzed in the presence of 10% plasma (triangles). Purified cleaved HMWK was also spiked into assay buffer and analyzed in the presence of 2.5% plasma (diamonds) or HMWK deficient plasma and analyzed in the presence of 2.5% plasma (closed circles). The y-axis presents the ELISA signal in absorbance units, and the x-axis presents the concentration of kininogen in μg/mL.
The following day, the plate was washed and then blocked with 2% BSA (Protease/IgG free) in PBS buffer. Following a wash, samples containing cleaved HMWK in 0.1% BSA buffer in PBS with 0.05% Tween-20 (2-Chain HMWK assay buffer). Purified protein standards (e.g., 2-chain HMWK, intact HMWK or LMWK) were spiked into HMWK-deficient plasma and diluted 1:320 in 2-chain HMWK assay buffer. Following plate washing with PBST, a mixture of 2 mouse monoclonal antibodies (11H05 and 13B12) at 1 μg/mL in 2-chain HMWK assay buffer were added for 1 hour at room temperature. […] Signal was detected by the addition of 3,3′,5,5′-tetramethylbenzidine (TMB), an HRP substrate. […] Hydrolysis of a TMB substrate was detected using a microplate reader at 450 nm-630 nm (FIG. 3). […] Using these immunoassay conditions, specifically binding to cleaved HMWK was detected.
Background: ELISA stands for enzyme-linked immunosorbent assay.

Assay [2] concerns the target T1, cleaved high molecular weight kininogen …. The assay can be described thus: optimized sandwich ELISA: M004-B04 capture, detection 11H05 + 13B12; value = C, midpoint of the printed 4-P fit; in-well concentration. The protocol:
(§1) The following day, the plate was washed and then blocked with 2% BSA (Protease/IgG free) in PBS buffer. Following a wash, samples containing cleaved HMWK in 0.1% BSA buffer in PBS with 0.05% Tween-20 (2-Chain HMWK assay buffer). Purified protein standards (e.g., 2-chain HMWK, intact HMWK or LMWK) were spiked into HMWK-deficient plasma and diluted 1:320 in 2-chain HMWK assay buffer. Following plate washing with PBST, a mixture of 2 mouse monoclonal antibodies (11H05 and 13B12) at 1 μg/mL in 2-chain HMWK assay buffer were added for 1 hour at room temperature. Unbound detection antibodies were washed and a 1:2000 dilution of goat anti-mouse secondary antibody conjugated to horseradish peroxidase (HRP) was added. The assay containing the secondary antibody was incubated for 1 hour at room temperature, and unbound secondary antibody was removed by washing with 2-chain HMWK assay buffer. Signal was detected by the addition of 3,3′,5,5′-tetramethylbenzidine (TMB), an HRP substrate. The reaction was stopped with phosphoric acid. Hydrolysis of a TMB substrate was detected using a microplate reader at 450 nm-630 nm (FIG. 3). […] Using these immunoassay conditions, specifically binding to cleaved HMWK was detected.

The target is the same in assay [3]. Briefly: ELISA on coated M004-B04, 2-chain HMWK titrated after preincubation of the plate with GCP28 peptide at 250 µg/mL; value = C of the printed 4-P fit; triangles, curve on the control's (the callout box on the graph names this curve HKH20: see recheck). The protocol:
as §1, with “Following” for “The following day, the plate was washed and then blocked with 2% BSA (Protease/IgG free) in PBS buffer. Following a wash, samples containing cleaved HMWK in 0.1% BSA buffer in PBS with 0.05% Tween-20 (2-Chain HMWK assay buffer). Purified protein standards (e.g., 2-chain HMWK, intact HMWK or LMWK) were spiked into HMWK-deficient plasma and diluted 1:320 in 2-chain HMWK assay buffer. Following”
(§2) To perform the assay, the kininogen peptides were diluted to 250 μg/mL and allowed to preincubate on assay plate. Then, purified 2-chain HMWK in deficient human plasma was diluted 160 and then added to plate.

For assay [4] the target is unchanged. Briefly: ELISA on coated M004-B04, 2-chain HMWK titrated after preincubation of the plate with competitor HKH20 peptide at 250 µg/mL; value = C of the printed 4-P fit; squares, right-shifted curve (the callout box on the graph names this curve GCP28: see recheck). The protocol:
as §1, with “Following” for “The following day, the plate was washed and then blocked with 2% BSA (Protease/IgG free) in PBS buffer. Following a wash, samples containing cleaved HMWK in 0.1% BSA buffer in PBS with 0.05% Tween-20 (2-Chain HMWK assay buffer). Purified protein standards (e.g., 2-chain HMWK, intact HMWK or LMWK) were spiked into HMWK-deficient plasma and diluted 1:320 in 2-chain HMWK assay buffer. Following”
as §2

B1: 559B-M0004-B04 (Fab, V domains shown)
VH: EVQLLESGGGLVQPGGSLRLSCAASGFTFSFYVMVWVRQAPGKGLEWVSGISPSGGNTAYADSVKGRFTISRDNSKNTLYLQMNSLRAEDTAVYYCARKLFYYDDTKGYFDFWGQGTLVTVSS
VL: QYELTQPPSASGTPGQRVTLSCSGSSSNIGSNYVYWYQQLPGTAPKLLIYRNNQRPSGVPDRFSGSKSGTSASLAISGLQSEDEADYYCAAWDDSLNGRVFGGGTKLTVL
notes: also called M004-B04
For the molecule B1, the 50% effective concentration (EC50) was 226 µg/mL in assay [1]; 0.00902 µg/mL and 0.0207 µg/mL and 0.0116 µg/mL in assay [2]; 0.00941 µg/mL in assay [3]; 0.0375 µg/mL in assay [4].

The term EC50 denotes the midpoint of the concentration-response curve.
